Measured values as given in PMC12952242.

Tests used:
ZNF207 full-length K42E = assay: EMSA
ZNF207 full-length WT = assay: EMSA

With U1 snRNA the Kd (ZNF207 full-length K42E) was 60.4 nM and the Kd (ZNF207 full-length WT) was 48.7 nM.
